Test [1] deals with human FcεR1α expressed on cells (human) (UniProt P12319). The test is described as follows: flow cytometry, 70 nM antibody on HEK293/hFcεR1α/hFcεR1β/hFcεR1γ cells pre-incubated with 70 nM human IgE.
Test [2] deals with human CD3 expressed in Jurkat cells (human) (UniProt P07766). The test is described as follows: cell-based or functional assay.
Test [3] has as its target human FcεR1α expressed on cells (human) (UniProt P12319). The test is described as follows: flow cytometry, 70 nM antibody on HEK293/hFcεR1α/hFcεR1β/hFcεR1γ cells, No IgE.
The target in test [4] is monkey (cynomolgus) FcεR1α expressed on cells (cynomolgus). The test is described as follows: flow cytometry, 70 nM antibody on HEK293/mfFcεR1α/hFcεR1β/hFcεR1γ cells, No IgE. A general note: In flow cytometry, cells or beads pass a laser one at a time.
The target is the same in test [5]. The test is described as follows: flow cytometry, 70 nM antibody on HEK293/mfFcεR1α/hFcεR1β/hFcεR1γ cells pre-incubated with 70 nM human IgE.
Test [6] concerns the target human CD3 expressed in Jurkat cells (human) (UniProt P07766). The test is described as follows: flow cytometry, 70 nM antibody on Jurkat/NFAT-luc cells, No IgE.
Test [7] concerns the target hFcεR1α.MMH (human). The test is described as follows: SPR (Biacore 8k), antibody captured on anti-human Fc, hFcεR1α.MMH injected, 37°C.
Test [8] deals with mfFcεR1α.MMH (cynomolgus (Macaca fascicularis)). The test is described as follows: SPR (Biacore 8k), antibody captured on anti-human Fc, mfFcεR1α.MMH injected, 37°C.
For test [9] the target is unchanged. The test is described as follows: SPR (Biacore 8k), antibody captured on anti-human Fc, mfFcεR1α.MMH injected, 25°C. A general note: SPR reads the build-up and loss of mass on a sensor chip optically.
For test [10], the target named is hFcεR1α.MMH (human). The test is described as follows: SPR (Biacore 8k), antibody captured on anti-human Fc, hFcεR1α.MMH injected, 25°C.

This note sets out measurements from patent US20200062844A1.

human FcεR1α expressed on cells (human), sequence (P12319 26-257): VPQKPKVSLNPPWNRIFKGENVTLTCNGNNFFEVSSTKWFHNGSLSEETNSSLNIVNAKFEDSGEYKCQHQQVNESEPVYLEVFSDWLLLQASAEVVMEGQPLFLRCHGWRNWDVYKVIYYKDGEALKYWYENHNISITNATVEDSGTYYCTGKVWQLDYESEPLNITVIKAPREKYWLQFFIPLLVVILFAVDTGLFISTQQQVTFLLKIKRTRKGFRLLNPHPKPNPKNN
human CD3 expressed in Jurkat cells (human), sequence (P07766 23-207 limits assumed, chain 1 of 4): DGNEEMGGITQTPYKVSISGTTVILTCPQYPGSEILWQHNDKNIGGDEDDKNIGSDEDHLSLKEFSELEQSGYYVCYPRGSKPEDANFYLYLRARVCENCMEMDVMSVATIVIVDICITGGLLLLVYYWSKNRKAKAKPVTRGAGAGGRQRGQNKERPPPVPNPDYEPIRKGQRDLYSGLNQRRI
human CD3 expressed in Jurkat cells (human), sequence (chain, as listed by the source limits assumed, chain 2 of 4): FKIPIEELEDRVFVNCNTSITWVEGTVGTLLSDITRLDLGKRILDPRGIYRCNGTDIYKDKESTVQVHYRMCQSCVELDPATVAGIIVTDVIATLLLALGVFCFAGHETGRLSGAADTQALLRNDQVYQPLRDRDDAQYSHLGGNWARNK
human CD3 expressed in Jurkat cells (human), sequence (chain, as listed by the source limits assumed, chain 3 of 4): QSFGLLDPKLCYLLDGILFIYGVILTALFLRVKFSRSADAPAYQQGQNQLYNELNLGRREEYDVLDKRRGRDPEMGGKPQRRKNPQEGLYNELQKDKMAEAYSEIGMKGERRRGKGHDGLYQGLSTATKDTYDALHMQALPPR
human CD3 expressed in Jurkat cells (human), sequence (chain, as listed by the source limits assumed, chain 4 of 4): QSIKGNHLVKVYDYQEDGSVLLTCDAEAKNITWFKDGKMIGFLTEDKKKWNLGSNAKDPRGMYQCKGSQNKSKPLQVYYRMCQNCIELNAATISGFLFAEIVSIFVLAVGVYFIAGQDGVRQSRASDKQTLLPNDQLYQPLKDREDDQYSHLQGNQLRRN
mfFcεR1α.MMH (cynomolgus (Macaca fascicularis)), sequence (chain, as listed by the source limits assumed): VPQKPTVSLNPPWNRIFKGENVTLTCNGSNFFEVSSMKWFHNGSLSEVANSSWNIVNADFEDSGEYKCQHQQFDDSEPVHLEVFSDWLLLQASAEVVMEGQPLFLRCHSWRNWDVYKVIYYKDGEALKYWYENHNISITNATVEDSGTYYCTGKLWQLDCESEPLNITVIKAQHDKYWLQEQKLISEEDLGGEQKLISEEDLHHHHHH
hFcεR1α.MMH (human), sequence (chain, as listed by the source limits assumed): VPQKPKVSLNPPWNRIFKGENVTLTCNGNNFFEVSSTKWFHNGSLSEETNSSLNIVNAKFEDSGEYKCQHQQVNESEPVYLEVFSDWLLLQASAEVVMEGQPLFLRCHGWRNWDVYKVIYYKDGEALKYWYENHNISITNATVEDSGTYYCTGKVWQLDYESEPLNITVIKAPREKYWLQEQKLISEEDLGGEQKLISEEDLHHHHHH

On to Human IgG4 Control (antibody), for which the Binding Ratio (MFI of Treated/MFI of Unstained) in [1], in [3], in test [4], in test [5] and in test [6] was 1 throughout. For the same substance, the Fold Activation, Jurkat/NFAT-luc with HEK293/hFcεR1α/hFcεR1β/hFcεR1γ cells, 10 nM IgE in [2] is 1 fold. In addition, the Fold Activation, Jurkat/NFAT-luc with HEK293/hFcεR1α/hFcεR1β/hFcεR1γ cells, No IgE in test [2] is 1 fold.

With Human IgG4 Stealth Control (antibody), the Binding Ratio (MFI of Treated/MFI of Unstained) in [1] amounted to 1; in test [3], 1; in [4], 1; in [5], 1; in test [6], 2. Also, the Fold Activation, Jurkat/NFAT-luc with HEK293/hFcεR1α/hFcεR1β/hFcεR1γ cells, 10 nM IgE in test [2] was 1 fold. This substance also had a Fold Activation, Jurkat/NFAT-luc with HEK293/hFcεR1α/hFcεR1β/hFcεR1γ cells, No IgE in [2] of 1 fold.

On to Isotype Control mAb (antibody), for which the values for the 600 nM hFcεR1α.MMH Bound (RU) in the test with hFcεR1α.MMH (human) [7] and with hFcεR1α.MMH (human) [10] were -2 RU and -5 RU, respectively. The 600 nM mfFceR1a.MMH Bound (RU) in test [8] and in test [9] was -9 RU in each case.
